# Measurements published in article PMC7806871 (Cell Death Discovery, 2021).
# T1: Tuberculosis necrotizing toxin (TNT), C-terminal domain of CpnT, recombinant TNT-His6x (M. tuberculosis, UniProt O05442 648-846)
# T1 construct: not shown: His6, C-terminal, kept
# T1 sequence: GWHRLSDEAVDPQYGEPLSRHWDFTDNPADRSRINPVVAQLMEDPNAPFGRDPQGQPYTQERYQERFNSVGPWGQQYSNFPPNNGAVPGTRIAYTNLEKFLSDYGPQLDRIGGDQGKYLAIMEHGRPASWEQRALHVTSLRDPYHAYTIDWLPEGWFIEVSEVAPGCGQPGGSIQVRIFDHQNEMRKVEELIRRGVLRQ
# Biological target: T1, Tuberculosis necrotizing toxin (TNT), …
# Test: ELISA
# Settings: both partners purified
binder,measurement,value
"Immunity factor for TNT (IFT), recombinant IFT-His6x (natural protein, not shown: His6, C-terminal, kept) TIGVDLSTDLQDWIRLSGMNMIQGSETNDGRTILWNKGGEVRYFIDRLAGWYVITSSDRMSREGYEFAAASMSVIEKYLYGYFGGSVRSERELPAIRAPFQPEELMPEYSIGTMTFAGRQRDTLIDSSGTVVAITAADRLVELSHYLDVSVNVIKDSFLDSEGKPLFTLWKDYKG",binding result,binds
